Experimental data: article PMC2823527 (The Journal of Biological Chemistry, 2009)
Where two headings read alike, the source gives them in different places.

B1: Sus1 (natural protein, yeast, UniProt Q6WNK7 1-96, looked up)
chain: MTMDTAQLKSQIQQYLVESGNYELISNELKARLLQEGWVDKVKDLTKSEMNINESTNFTQILSTVEPKALEMVSDSTRETVLKQIREFLEEIVDTQ

Columns and labels:
Sus1 [1] = target: B1; experiment: crystal structure
Sus1 [2] = target: B1; experiment: crystal structure; remark: listed apart in the source
[3] = target: T1, GST-Sac3 753-805 / Cdc31 complex (yeast, UniProt P46674 753-805; P06704 1-161); experiment: pull-down
T1 sequence (looked up) 1: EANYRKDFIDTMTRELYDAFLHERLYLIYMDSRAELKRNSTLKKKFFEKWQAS
T1 sequence (looked up) 2: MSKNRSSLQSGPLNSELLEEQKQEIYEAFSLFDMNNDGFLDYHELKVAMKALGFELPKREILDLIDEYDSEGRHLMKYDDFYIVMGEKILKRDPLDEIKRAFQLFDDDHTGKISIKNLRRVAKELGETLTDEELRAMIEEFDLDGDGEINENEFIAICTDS

[4] = target: T2, GST-Sac3 723-805 / Cdc31 complex (yeast, UniProt P46674 723-805; P06704 1-161); experiment: pull-down
T2 sequence (looked up) 1: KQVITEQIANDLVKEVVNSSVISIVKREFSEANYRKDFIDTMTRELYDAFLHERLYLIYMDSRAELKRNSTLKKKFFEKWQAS
T2 sequence (looked up) 2: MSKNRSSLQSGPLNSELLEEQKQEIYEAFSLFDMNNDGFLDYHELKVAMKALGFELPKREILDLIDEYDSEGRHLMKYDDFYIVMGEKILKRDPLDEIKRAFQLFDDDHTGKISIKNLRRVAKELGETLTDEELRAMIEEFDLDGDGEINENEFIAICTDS

[5] = target: T3, Sgf11 full-length, released from GST (S. cerevisiae, UniProt Q03067 1-99); experiment: SEC
T3 sequence (looked up): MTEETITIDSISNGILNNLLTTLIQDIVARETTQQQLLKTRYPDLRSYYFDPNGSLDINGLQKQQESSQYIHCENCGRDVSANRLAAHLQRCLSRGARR

## TIDSISNGILNNLLTTLIQDIVARETT (domain or fragment, S. cerevisiae, UniProt Q03067 7-33, looked up) [Sgf11-(7-33), released from GST]
Sus1 [1]
  binding result: binds

## MTEETITIDSISNGILNNLLTTLIQDIVARETT (domain or fragment, S. cerevisiae, UniProt Q03067 1-33, looked up) [Sgf11-(1-33), released from GST]
Sus1 [2]
  binding result: binds

## B1
[3]
  binding result: binds
[4]
  binding result: binds
[5]
  binding result: binds
